Results as given in publication PMC11832422 (Nature Structural & Molecular Biology, 2024).
“And” between values parts separate entries of the source, which are not always exact repeats. Identical values can stand only once.

Biological target: the molecule itself
Assay: cryo-EM structure

B1: CXCR4EM (human CXCR4 with N119S, hemagglutinin signal peptide, C-terminal monomeric enhanced GFP and FLAG tag) (receptor)
chain: EGISIYTSDNYTEEMGSGDYDSMKEPCFREENANFNKIFLPTIYSIIFLTGIVGNGLVILVMGYQKKLRSMTDKYRLHLSVADLLFVITLPFWAVDAVANWYFGNFLCKAVHVIYTVSLYSSVLILAFISLDRYLAIVHATNSQRPRKLLAEKVVYVGVWIPALLLTIPDFIFANVSEADDRYICDRFYPNDLWVVVFQFQHIMVGLILPGIVILSCYCIIISKLSHSKGHQKRKALKTTVILILAFFACWLPYYIGISIDSFILLEIIKQGCEFENTVHKWISITEALAFFHCCLNPILYAFLGAKFKTSAQHALTSVSRGSSLKILSKGKRGGHSSVSTESESSSFHSS
stoichiometry N: 3 and 4
